Source: patent US20190352426A1, “PLAZOMICIN ANTIBODIES AND METHODS OF USE” (Achaogen, Inc., priority 2016, published 2019)
Residue numbers refer to the chain shown, from its start.

B1: MC335: murine monoclonal anti-plazomicin antibody; heavy chain variable SEQ ID NO 66, light chain variable SEQ ID NO 70 (antibody, listed as Mus musculus, V domains shown)
VH: AGQLKESGPGLVKPSQSLSLTCTVTGSSITSDYAWNWIRQFPGNKLEWMGYISQSGSTSYNPSLKSRISITRDTSKNQFFLQLNSVTTEDTATYYCTGNSYTMDYWGQGTSVTVSS
VL: DIVMTQSPKFLLVSAGDRVTITCKASQSVSNDVAWYQQKPGQSPKLLISYASNRYTGVPDRFTGSGYGTDFTFTITTVQAEDLAVYFCQQDYSSPWTFGGGTKLEIK
B2: MC331: murine monoclonal anti-plazomicin antibody; heavy chain variable SEQ ID NO 42, light chain variable SEQ ID NO 46 (antibody, listed as Mus musculus, V domains shown)
VH: QVQLQQSGAELAKPGASVKMSCKASGNTFTSYWMHWIKQRPGQGLEWIGYIDPSTGYTEYNQKFKDRATLTADKSSNTAYMQLNSLTSEDSAVYYCTKSGKWDDYWGQGTTLTVSS
VL: B1 VL with D1S, S7T, S30T, S49C, T76S, Y92H, S93T, W96F
B3: MC336: murine monoclonal anti-plazomicin antibody; heavy chain variable SEQ ID NO 74, light chain variable SEQ ID NO 78 (antibody, listed as Mus musculus, V domains shown)
VH: B1 VH with A1Q, G2M, K5Q, S27D, Q54Y, T71S, T88I
VL: B1 VL with D1S, S7T, K45N, T76S, S93I
B4: MC329: murine monoclonal anti-plazomicin antibody from hybridoma MC329; heavy chain variable SEQ ID NO 22, light chain SEQ ID NO 26, 30 (antibody, listed as Mus musculus, V domains shown)
VH: SDVQLQESGPGLVKPSQSLSLTCTVTGYSITTNYAWNWIRQFPGHKLEWMGYITSSGRTSYNPPLKSRISITRDTSRSQFFLRLNSVTTEDTATYFCTHTTAYLDYWGQGTTLTVSS
VL 1: B1 VL with D1S, S7T, T72A, T76N, V85F, W96Y
VL 2: DIKMTQSPSSMYASLGERVTITCKASQDIKSYLSWYQQIPWKSPKTLIYYATSLADGVPSRFSGSGSGQDYSLTISSLESDDTATYYCLQHGESPLTFGAGTKLELK
B5: MC337: murine monoclonal anti-plazomicin antibody; heavy chain variable SEQ ID NO 82, light chain variable SEQ ID NO 86 (antibody, listed as Mus musculus, V domains shown)
VH: QVQLQQPGPELVKPGASVKMSCKASGYTFTSYVIHWVKQKPGQGLEWIGYINPFNDGTKYNEKFKGKATLTSDKSSSTAYMELSSLTSEDSAVYYCEGVGSSGSDYWGQGTTLTVSS
VL: B1 VL with S7T, S30R, T76S, V85I, W96Y
B6: MC340: murine monoclonal anti-plazomicin antibody; heavy chain variable SEQ ID NO 98, light chain variable SEQ ID NO 102 (antibody, listed as Mus musculus, V domains shown)
VH: QVTLKESGGGLVQPGGSMKISCVVSGLTFRNYWMSWVRQSPEKGLEWVAEIRLKSDNYATHYAESVKGKFTISRDDSKSRLYLQMNSLRAEDTGIYYCTVYGKDFDYWGQGTTLTVSS
VL: B1 VL with I2V, S7T, T76S
B7: MC339: murine monoclonal anti-plazomicin antibody; heavy chain variable SEQ ID NO 90, light chain variable SEQ ID NO 94 (antibody, listed as Mus musculus, V domains shown)
VH: QVQLVQSGPELVKPGASVKVSCKASGFSFTDYNMYWVKQSHGKSLEWIGYIDPYNGGTSYNQKFKGKATLTFDKSSSTAFMHLNSLTSEDSAVYYCASAGNYDDYWGQGTTLTVSS
VL: B1 VL with S7T, K45T, S49Y, T76S, S93T, W96Y
B8: MC330: murine monoclonal anti-plazomicin antibody; heavy chain variable SEQ ID NO 34, light chain variable SEQ ID NO 38 (antibody, listed as Mus musculus, V domains shown)
VH: SDVQLQESGPGLVTPSQSLSLTCTVTGYSITSAYAWNWIRQFPGNKLEWLGYINSSGSTSYHPSLKGRISITRDTSKNQFFLQLNSVTTEDTATYYCTHTTSYFDYWGQGTTLTVSS
VL: B1 VL with D1S, S7T, L12I, T74A, W96Y, L104V
B9: MC334: murine monoclonal anti-plazomicin antibody; heavy chain variable SEQ ID NO 58, light chain variable SEQ ID NO 62 (antibody, listed as Mus musculus, V domains shown)
VH: QVQLQQSGAELMKPGASVKISCKATGYKFSRYWIEWVKESPGHGLEWIGEIFPGSDSTDYNEKFKGKATLTADSSSNTAYMQLSSLTSEDSAVYYCARDGGGLDEFAYWGQGTPVIVSA
VL: DVVVTQIPLSLSVSFGDQVSISCRSSQSLTNSYGYTYLSWYLHKPGQSPQLLIYGISNRFSGVPDRFSGSGSGTDFTLKISTIKPEDLGMYYCLQGTHQPYTFGGGTKLEIR
B10: MC332: murine monoclonal anti-plazomicin antibody; heavy chain variable SEQ ID NO 50, light chain variable SEQ ID NO 54 (antibody, listed as Mus musculus, V domains shown)
VH: B9 VH
VL: B9 VL with I7N

Columns and labels:
Assay type in all cases: binding
[1] = competitive ELISA on BSA-bromo-plazomicin coated plates, free sisomicin; details: free sisomicin 0.013-270 μg/ml incubated with antibody at 0.05 nM, then added to BSA-bromo-plazomicin-coated ELISA plates
Protocol: (§1) The purified antibodies were then analyzed for binding to BSA-plazomicin by ELISA (the tested concentrations of antibodies ranged from 0.0001 nM to 100 nM). (FIG. 1A) and competitive ELISA (FIG. 1B) on BSA-bromo-plazomicin coated ELISA plates. For competitive ELISAs, free aminoglycosides (plazomicin, gentamicin, amikacin, and sisomicin) at concentrations; 270 μg/ml, 90 μg/ml 30 μg/ml, 10 μg/ml, 3.3 μg/ml, 1.1 μg/ml, 0.4 μg/ml, 0.12 μg/ml, 0.04 μg/ml and 0.013 μg/ml were incubated with one of 10 purified monoclonal antibodies derived from the cell cultures described above; MC329, MC330, MC331, MC332, MC334, […], […], MC337, MC339, MC340 at 0.05 nM concentration (FIG. 1B). The antibody/aminoglycoside solutions were then added to BSA-bromo-plazomicin-coated ELISA plates. Plates were washed to remove unbound antibody, and IC50 values (μg/mL) were determined for each aminoglycoside and are shown below in Table 5.

[2] = competitive ELISA on BSA-bromo-plazomicin coated plates, free plazomicin; details: free plazomicin 0.013-270 μg/ml incubated with antibody at 0.05 nM, then added to BSA-bromo-plazomicin-coated ELISA plates
Protocol: as §1

[3] = competitive ELISA on BSA-bromo-plazomicin coated plates, free gentamicin; details: free gentamicin 0.013-270 μg/ml incubated with antibody at 0.05 nM, then added to BSA-bromo-plazomicin-coated ELISA plates
Protocol: as §1

Molecule | Antibiotic IC50 Values for Aminoglycosides: Sisomicin [1] | Antibiotic IC50 Values for Aminoglycosides: Plazomicin [2] | Antibiotic IC50 Values for Aminoglycosides: Gentamicin [3]
B1 | 69.0 mg/L | 0.59 mg/L | 
B2 | 83.0 mg/L | 0.43 mg/L | 214.4 mg/L
B3 | 37.6 mg/L | 0.25 mg/L | ~106.1 mg/L
B4 | 83.0 mg/L | 0.43 mg/L | 107.0 mg/L
B5 | 16.1 mg/L | 0.06 mg/L | 107.6 mg/L
B6 | 153 mg/L | 19.0 mg/L | 
B7 | 24.4 mg/L | 0.12 mg/L | ~101.7 mg/L
B8 | 9.9 mg/L | 0.02 mg/L | 92.0 mg/L
B9 |  | 0.72 mg/L | 
B10 |  | 0.94 mg/L | 
